From patent publication US20170306033A1 (Amgen, published 2017)
Changes are numbered by the printed parent chain.

T1: human PAC1 receptor (human, UniProt P41586 21-468)
T1 sequence: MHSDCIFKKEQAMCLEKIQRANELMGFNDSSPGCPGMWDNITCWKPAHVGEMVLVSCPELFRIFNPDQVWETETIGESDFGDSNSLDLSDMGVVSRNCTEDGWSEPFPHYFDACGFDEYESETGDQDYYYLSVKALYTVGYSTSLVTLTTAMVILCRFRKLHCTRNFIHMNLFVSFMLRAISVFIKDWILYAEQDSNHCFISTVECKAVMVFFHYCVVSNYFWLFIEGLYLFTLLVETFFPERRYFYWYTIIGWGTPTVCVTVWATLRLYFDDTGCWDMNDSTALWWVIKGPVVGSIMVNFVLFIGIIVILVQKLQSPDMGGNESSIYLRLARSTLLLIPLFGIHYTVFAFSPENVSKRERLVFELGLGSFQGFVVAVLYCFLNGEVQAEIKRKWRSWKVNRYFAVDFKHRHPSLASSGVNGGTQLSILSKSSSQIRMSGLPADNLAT

B1: iPS:327735 (bispecific antibody, human IgG1, kappa, lambda, N297G)
light 1: DIQMTQSPSSLSASVGDRITITCRASQSISRYLNWYQQKPGKAPKLLIYAASSLQSGIPSRFSGSGSGTDFTLTINSLQPEDFATYFCQQSYSPPFTFGEGTKVDIKRTVAAPSVFIFPPSDEQLKSGTASVVCLLNNFYPREAKVQWKVDNALQSGNSQESVTEQDSKDSTYSLESTLTLSKADYEKHKVYACEVTHQGLSSPVTKSFNRGEC
heavy 1: not shown
light 2: QSVLTQPPSVSAAPGQKVTISCSGSSSNIGNNYVSWYQQLPGTAPKLLIYDNNKRPSGIPDRFSGSKSGTSATLGITGLQTGDEADYYCGTWDSRLSAVVFGKGTKLTVLGQPKANPTVTLFPPSSEELQANKATLVCLISDFYPGAVTVAWKADGSPVKAGVETTKPSKQSNNKYAAKSYLSLTPEQWKSHRSYSCQVTHEGSTVEKTVAPTECS
heavy 2: QVQLVESGGGVVQPGRSLRLSCAASGFTFSSFGMHWVRQAPGKELEWVAVISFDGSIKYSVDSVKGRFTISRDNSKNTLFLQMNSLRAEDTAVYYCARDRLNYYESSGYYHYKYYGMAVWGQGTTVTVSSASTKGPSVFPLAPSSKSTSGGTAALGCLVKDYFPEPVTVSWNSGALTSGVHTFPAVLQSSGLYSLESVVTVPSSSLGTQTYICNVNHKPSNTKVDKKVEPKSCDKTHTCPPCPAPELLGGPSVFLFPPKPKDTLMISRTPEVTCVVVDVSHEDPEVKFNWYVDGVEVHNAKTKPCEEQYGSTYRCVSVLTVLHQDWLNGKEYKCKVSNKALPAPIEKTISKAKGQPREPQVYTLPPSRKEMTKNQVSLTCLVKGFYPSDIAVEWESNGQPENNYKTTPPVLKSDGSFFLYSKLTVDKSRWQQGNVFSCSVMHEALHNHYTQKSLSLSPGK
B2: iPS:327726 (bispecific antibody, human IgG1, kappa, lambda, N297G)
light 1: EIVLTQSPATLSLSPGERATLSCRASQSVGRSLHWYQQKPGQAPRLLIKYASQSLSGIPARFSGSGSGTDFTLTISSLEPEDFAVYYCHQSSRLPFTFGEGTKVDIKRTVAAPSVFIFPPSDEQLKSGTASVVCLLNNFYPREAKVQWKVDNALQSGNSQESVTEQDSKDSTYSLESTLTLSKADYEKHKVYACEVTHQGLSSPVTKSFNRGEC
heavy 1: not shown
light 2: B1 light 2 with G75A
heavy 2: B1 heavy 2 with E105D
B3: iPS:327739 (bispecific antibody, human IgG1, kappa, lambda, N297G)
light 1: not shown
heavy 1: not shown
light 2: B1 light 2 with K103G
heavy 2: B1 heavy 2 with E44G, E370K
B4: iPS:327737 (bispecific antibody, human IgG1, kappa, lambda, N297G)
light 1: DIQLTQSPSFLSASVGDRVTITCRASQSIGRSLHWYQQKPGKAPKLLIKYASQSLSGVPSRFSGSGSGTEFTLTISSLQPEDFATYYCHQSSRLPFTFGEGTKVDIKRTVAAPSVFIFPPSDEQLKSGTASVVCLLNNFYPREAKVQWKVDNALQSGNSQESVTEQDSKDSTYSLESTLTLSKADYEKHKVYACEVTHQGLSSPVTKSFNRGEC
heavy 1: not shown
light 2: B1 light 2
heavy 2: B1 heavy 2
B5: iPS:327727 (bispecific antibody, human IgG1, kappa, lambda, N297G)
light 1: not shown
heavy 1: not shown
light 2: B1 light 2 with G75A, K103G
heavy 2: B1 heavy 2 with E44G, E105D, E370K
B6: iPS:327736 (bispecific antibody, human IgG1, kappa, lambda, N297G)
light 1: not shown
heavy 1: not shown
light 2: B1 light 2
heavy 2: B1 heavy 2
B7: iPS:327728 (bispecific antibody, human IgG1, kappa, lambda, N297G)
light 1: not shown
heavy 1: not shown
light 2: B1 light 2 with G75A, K103G
heavy 2: B1 heavy 2 with E44G, E105D, E370K
B8: iPS:327738 (bispecific antibody, human IgG1, kappa, lambda, N297G)
light 1: B2 light 1
heavy 1: not shown
light 2: B1 light 2
heavy 2: B1 heavy 2
B9: iPS:326663 (bispecific antibody, human IgG2, kappa)
light 1: B4 light 1 with E100P
heavy 1: QVQLVESGAEVVKPGASVKVSCKASGFTFSRFAMHWVRQAPGQGLEWMGVISYDGGNKYYAESVKGRVTMTRDTSTSTLYMELSSLRSEDTAVYYCARGYDVLTGYPDYWGQGTLVTVSSASTKGPSVFPLAPCSRSTSESTAALGCLVKDYFPEPVTVSWNSGALTSGVHTFPAVLQSSGLYSLKSVVTVPSSNFGTQTYTCNVDHKPSNTKVDKTVERKCCVECPPCPAPPVAGPSVFLFPPKPKDTLMISRTPEVTCVVVDVSHEDPEVQFNWYVDGVEVHNAKTKPREEQFNSTFRVVSVLTVVHQDWLNGKEYKCKVSNKGLPAPIEKTISKTKGQPREPQVYTLPPSREEMTKNQVSLTCLVDGFYPSDIAVEWESNGQPENNYDTTPPMLDSDGSFFLYSDLTVDKSRWQQGNVFSCSVMHEALHNHYTQKSLSLSPGK
light 2: EIVLTQSPGTLSLSPGERATLSCRASQSVSSGYLTWYQQKPGQAPRLLIYGASSRATGIPDRFSGSGSGTDFTLTISRLEPEDFAVYYCQQYGNSLSRFGQGTKLEIKRTVAAPSVFIFPPSDEQLKSGTASVVCLLNNFYPREAKVQWKVDNALQSGNSQESVTEQDSKDSTYSLKSTLTLSKADYEKHKVYACEVTHQGLSSPVTKSFNRGEC
heavy 2: QVQLVESGGGVVQPGRSLRLSCAASGFTFSSYGMHWVRQAPGKGLEWVAVIWYDGSNKYYADSVKGRFIISRDKSKNTLYLQMNSLRAEDTAVYYCARAGGIAAAGLYYYYGMDVWGQGTTVTVSSASTKGPSVFPLAPCSRSTSESTAALGCLVKDYFPEPVTVSWNSGALTSGVHTFPAVLQSSGLYSLESVVTVPSSNFGTQTYTCNVDHKPSNTKVDKTVERKCCVECPPCPAPPVAGPSVFLFPPKPKDTLMISRTPEVTCVVVDVSHEDPEVQFNWYVDGVEVHNAKTKPREEQFNSTFRVVSVLTVVHQDWLNGKEYKCKVSNKGLPAPIEKTISKTKGQPREPQVYTLPPSRKKMTKNQVSLTCLVKGFYPSDIAVEWESNGQPENNYKTTPPMLKSDGSFFLYSKLTVDKSRWQQGNVFSCSVMHEALHNHYTQKSLSLSPGK
B10: iPS:327875 (bispecific antibody, human IgG1, kappa, N297G)
light 1: not shown
heavy 1: not shown
light 2: B9 light 2 with Q101K
heavy 2: QVQLVESGGGVVQPGRSLRLSCAASGFTFSSYGMHWVRQAPGKELEWVAVIWYDGSNKYYAESVKGRFIISRDKSKNTLYLQMNSLRAEDTAVYYCARAGGIAAAGLYYYYGMDVWGQGTTVTVSSASTKGPSVFPLAPSSKSTSGGTAALGCLVKDYFPEPVTVSWNSGALTSGVHTFPAVLQSSGLYSLESVVTVPSSSLGTQTYICNVNHKPSNTKVDKKVEPKSCDKTHTCPPCPAPELLGGPSVFLFPPKPKDTLMISRTPEVTCVVVDVSHEDPEVKFNWYVDGVEVHNAKTKPCEEQYGSTYRCVSVLTVLHQDWLNGKEYKCKVSNKALPAPIEKTISKAKGQPREPQVYTLPPSRKEMTKNQVSLTCLVKGFYPSDIAVEWESNGQPENNYKTTPPVLKSDGSFFLYSKLTVDKSRWQQGNVFSCSVMHEALHNHYTQKSLSLSPGK

molecular target: human CGRP receptor (human, UniProt Q16602 23-461; O60894 27-148); experiment: cell-based or functional assay
Sequence (Q16602 23-461 limits assumed, chain 1 of 2): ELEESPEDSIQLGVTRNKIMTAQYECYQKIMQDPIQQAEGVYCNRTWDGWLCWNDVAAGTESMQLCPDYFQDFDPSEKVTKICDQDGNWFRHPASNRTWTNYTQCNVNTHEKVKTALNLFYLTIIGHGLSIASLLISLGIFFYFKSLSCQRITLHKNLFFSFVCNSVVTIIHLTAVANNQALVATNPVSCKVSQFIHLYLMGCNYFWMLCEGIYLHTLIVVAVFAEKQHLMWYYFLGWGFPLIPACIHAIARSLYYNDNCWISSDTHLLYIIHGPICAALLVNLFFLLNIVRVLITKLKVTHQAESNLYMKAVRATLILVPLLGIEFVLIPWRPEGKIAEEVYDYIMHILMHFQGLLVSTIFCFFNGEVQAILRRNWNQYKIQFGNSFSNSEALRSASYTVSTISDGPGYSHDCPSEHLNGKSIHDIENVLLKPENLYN
Sequence (O60894 27-148 limits assumed, chain 2 of 2): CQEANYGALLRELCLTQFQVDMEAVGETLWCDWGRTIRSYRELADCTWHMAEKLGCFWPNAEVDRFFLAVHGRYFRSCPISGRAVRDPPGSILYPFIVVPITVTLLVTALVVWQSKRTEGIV

Going from B1 to B2, the “% inhibition of human CGRPR” value rises from 81% to 91%.

First: B3
Second: B4
The “% inhibition of human CGRPR” value of the first is lower: 79% for the first, 82% for the second.

Compared with B5, B6 is lower in “% inhibition of human CGRPR” value: 93% for the first, 88% for the second.

Going from B7 to B8, the “% inhibition of human CGRPR” value rises from 80% to 85%.

Going from B9 to B10, the “% inhibition of human CGRPR” value rises from 64% to 83%.

molecular target: T1, human PAC1 receptor; experiment: cell-based or functional assay

Going from B1 to B2, the “% inhibition of human PAC1” value rises from 68% to 77%.

First: B3
Second: B4
The “% inhibition of human PAC1” value of the first is higher: 76% for the first, 54% for the second.

Going from B5 to B6, the “% inhibition of human PAC1” value falls from 93% to 20%.

Going from B7 to B8, the “% inhibition of human PAC1” value rises from 79% to 93%.

Going from B9 to B10, the “% inhibition of human PAC1” value falls from 62% to 10%.
